Six molecules from publication PMC3988316 (Cell, 2013) can be followed below.

This assay deals with N-terminally flag-tagged full-length S. cerevisiae Ubr1 (S. cerevisiae, UniProt P19812 1-1950). The assay can be described thus: peptide or protein array.

No end group written: not given here. cellulose‑PEG membrane = cellulose-PEG membrane solid support to which peptides are linked at the C-terminus as "dots"

Sequence of N-terminally flag-tagged full-length S. cerevisiae Ubr1 (P19812 whole entry): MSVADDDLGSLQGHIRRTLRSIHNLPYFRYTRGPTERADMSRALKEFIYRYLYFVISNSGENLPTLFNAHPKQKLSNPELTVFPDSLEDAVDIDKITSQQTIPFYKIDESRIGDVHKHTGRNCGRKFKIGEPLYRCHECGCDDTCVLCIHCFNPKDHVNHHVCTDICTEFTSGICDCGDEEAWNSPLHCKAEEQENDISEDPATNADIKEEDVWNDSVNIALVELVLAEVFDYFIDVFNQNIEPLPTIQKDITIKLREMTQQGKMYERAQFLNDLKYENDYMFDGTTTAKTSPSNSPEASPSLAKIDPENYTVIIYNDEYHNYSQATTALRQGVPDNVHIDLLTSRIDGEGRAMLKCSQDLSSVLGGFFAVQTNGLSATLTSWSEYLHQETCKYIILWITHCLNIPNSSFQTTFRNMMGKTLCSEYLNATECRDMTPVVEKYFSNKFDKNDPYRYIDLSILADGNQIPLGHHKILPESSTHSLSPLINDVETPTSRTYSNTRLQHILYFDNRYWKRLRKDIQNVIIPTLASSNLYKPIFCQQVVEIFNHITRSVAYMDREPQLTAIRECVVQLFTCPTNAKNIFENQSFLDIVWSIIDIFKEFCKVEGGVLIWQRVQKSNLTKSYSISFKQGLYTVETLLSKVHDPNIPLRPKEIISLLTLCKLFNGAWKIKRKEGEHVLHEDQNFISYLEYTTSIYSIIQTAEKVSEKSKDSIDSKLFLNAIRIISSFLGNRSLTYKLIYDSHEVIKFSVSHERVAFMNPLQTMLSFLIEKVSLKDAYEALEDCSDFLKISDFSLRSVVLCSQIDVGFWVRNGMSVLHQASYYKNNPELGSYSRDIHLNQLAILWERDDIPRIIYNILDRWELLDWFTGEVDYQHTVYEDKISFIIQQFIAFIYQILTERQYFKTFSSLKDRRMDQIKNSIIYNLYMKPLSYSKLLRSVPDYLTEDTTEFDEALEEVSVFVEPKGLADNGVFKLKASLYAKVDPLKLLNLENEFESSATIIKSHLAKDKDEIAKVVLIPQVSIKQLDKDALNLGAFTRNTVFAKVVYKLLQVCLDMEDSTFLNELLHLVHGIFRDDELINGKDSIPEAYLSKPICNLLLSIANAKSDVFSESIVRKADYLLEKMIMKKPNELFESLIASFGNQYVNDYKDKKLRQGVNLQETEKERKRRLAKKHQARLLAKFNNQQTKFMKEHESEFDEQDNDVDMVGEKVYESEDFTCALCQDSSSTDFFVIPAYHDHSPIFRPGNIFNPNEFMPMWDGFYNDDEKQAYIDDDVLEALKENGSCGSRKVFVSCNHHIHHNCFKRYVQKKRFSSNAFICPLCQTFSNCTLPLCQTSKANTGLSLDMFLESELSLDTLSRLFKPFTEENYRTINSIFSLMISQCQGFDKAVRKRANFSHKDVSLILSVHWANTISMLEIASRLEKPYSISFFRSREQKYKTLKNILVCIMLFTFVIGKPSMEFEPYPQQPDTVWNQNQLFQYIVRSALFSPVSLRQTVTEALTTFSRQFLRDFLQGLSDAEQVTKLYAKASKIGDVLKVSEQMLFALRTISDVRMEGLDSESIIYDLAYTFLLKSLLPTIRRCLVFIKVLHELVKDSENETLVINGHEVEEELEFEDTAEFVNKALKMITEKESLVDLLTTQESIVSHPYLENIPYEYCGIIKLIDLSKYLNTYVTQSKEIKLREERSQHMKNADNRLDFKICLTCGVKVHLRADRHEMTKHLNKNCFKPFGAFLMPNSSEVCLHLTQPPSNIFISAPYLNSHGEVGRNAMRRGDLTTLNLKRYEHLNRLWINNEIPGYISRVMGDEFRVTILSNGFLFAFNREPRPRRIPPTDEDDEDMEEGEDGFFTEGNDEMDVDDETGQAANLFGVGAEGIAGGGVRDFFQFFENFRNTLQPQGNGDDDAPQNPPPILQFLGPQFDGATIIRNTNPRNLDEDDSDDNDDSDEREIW

B1: Met-Tyr-e^K(3–10) peptide (peptide)
peptide: MYGSGAWLLP-{cellulose‑PEG membrane}
B1: the binding result is “binds”.

B2: Met-Ile-e^K(3–10) peptide (peptide)
peptide: MIGSGAWLLP-{cellulose‑PEG membrane}
In the case of B2, the binding result is listed as “binds”.

B3: Met-Phe-e^K(3–10) peptide (peptide)
peptide: MFGSGAWLLP-{cellulose‑PEG membrane}
Consider B3, for which the binding result is “binds”.

B4: Met-Ala-e^K(3–10) peptide (peptide)
peptide: MAGSGAWLLP-{cellulose‑PEG membrane}
Take B4: the binding result is listed as “binds”.

B5: Met-Val-e^K(3–10) peptide (peptide)
peptide: MVGSGAWLLP-{cellulose‑PEG membrane}
As to B5, the binding result is listed as “binds”.

B6: Met-Trp-e^K(3–10) peptide (peptide)
peptide: MWGSGAWLLP-{cellulose‑PEG membrane}
For B6, the binding result is “binds”.
